The text below walks through data of patent publication US20060165683A1, “Methods and compositions for control of bone formation via modulation of sympathetic tone” (priority 2001, published 2006).

The test system of one data set is ob/ob mice. The data set can be described thus: Intracerebroventricular infusion of leptin in ob/ob mice. It counts as in vivo, mouse. As for the experimental part:
Lastly, the issue of whether leptin binding to its hypothalamic receptor could correct the high bone mass phenotype of the ob/ob mice as it can rescue their obesity phenotype was addressed. To that end pumps delivering either PBS or leptin (8 ng/hr) in the third ventricle of ob/ob mice were inserted as follows. Animals were anesthetized with avertin and placed on a stereotaxic instrument (Stoelting). The Calabria was exposed and a 0.7 mm hole was drilled upon bregma. A 28-gauge cannula (Brain infusion kit U, Alza) was implanted into the third ventricle according to the following coordinates: midline, −0.3 AP, 3 mm ventral (0 point bregma). The cannula was secured to the skull with cyanoacrylate, and attached with Tygon tubing to an osmotic pump (Alza) placed in the dorsal subcutaneous space of the animal. The rate of delivery was 0.25 μl/hour (8 ng/hr of leptin (Sigma)) or PBS for 28 days. The dosage has been previously shown to have no effect when administered systemically (Halaas et al., 1997, Proc Nati Acad Sci USA 94:8878-8883). To be as close as possible to the biological situation of the ob/ob mice, the animals in which pumps were inserted were ovariectomized to avoid any artificial increase in bone mass due to the correction of their hypogonadism. The pumps were left in place for 28 days and double-labeling with calcein was performed to measure the bone formation parameters.

The next data set concerns A^y/a mice. The data set can be described thus: Leptin ICV infusion in A^y/a mice. It counts as in vivo, mouse. As for the experimental part: Wildtype (C57BL/6J) and mutant (C57BL/6J A^y/a, C57BL/6J ob/ob) mice were obtained from the Jackson laboratory and adrenal medullectomized mice from Harlan Tecklad laboratory. Dbh−/− mice were rescued as previously described (Thomas et al., 1998, Neurochem 70:2468-2476). Isoproterenol (Sigma) was injected intraperitoneally (ip) once daily for 6 weeks at 30 mg/kg (wt) or 3 mg/kg (ob/ob). Propranolol (Sigma) was added to the drinking water at a concentration of 0.5 g/l. For ICV infusion, a 28-gauge cannula (Brain infusion kit II, Alza) was implanted into the third ventricle as previously described infusing human leptin (Sigma) at 8 ng/hr or MT-II at 125 ng/hr (Phoenix Pharmaceuticals) for 28 days (see, e.g., Ducy et al., 2000, Cell 100: 197-207). The cannula was connected to an osmotic pump (Alza) placed in the dorsal subcutaneous space of the animal. For parabiosis longitudinal incisions were made in the skin and in the peritoneal cavity along one side on each mouse. Edges of the incisions were connected by suture to induce coelioanastomosis. Cross-circulation was quantified by injecting 1 ml/kg 0.25% Evans blue into the tail vein of one mouse of the parabiosed pair. After 30 min. blood was collected from both mice by retroorbital bleeding and the blood exchange rate was calculated according to standard techniques (see, e.g., Harris & Martin, 1984, Am J Physiol 247:R380-386). […] Two weeks after parabiosis a pump delivering leptin ICV in one animal of each pair was implanted. For GTG lesioning, 4-week-old C57BL/6J mice were given a single ip injection of either PBS or GTG (0.5 mg/g). For MSG lesioning, 2 day-old C57BL/6J pups were injected daily subcutaneously with either PBS or MSG (2 mg/g) for 10 days.

Where [1] appears, read: ob/ob mice, ICV 8 ng/hr, 28 days.

“Also recorded” adds a separate entry of the source.

B1: leptin: polypeptide hormone, product of the ob gene; human leptin (Sigma) infused ICV (protein)
chain: VPIQKVQDDTKTLIKTIVTRINDISHTQSVSAKQRVTGLDFIPGLHPILSLSKMDQTLAVYQQVLTSLPSQNVLQIANDLENLRDLLHLLAFSKSCSLPQTSGLQKPESLDGVLEASLYSTEVVALSRLQGSLQDILQQLDVSPEC
For the molecule B1, the “leptin in the serum (radioimmunoassay)” value in the data set with ob/ob mice (ob/ob mice after ICV infusion) was “No leptin in the serum of these animals was detected”. In the data set on ob/ob mice (setting [1]), the Bone Volume result is given as “significantly decreased”, the bone formation rates result was “significantly decreased” and the trabeculae thickness entry was “significantly decreased”. For the same molecule, the “bone appearance (classical histology)” value in the data set on ob/ob mice (ovariectomized ob/ob mice, third ventricle, 8 ng/hr, 28 days, vs PBS) is given as “regained a normal appearance”. Also, the body weight result with A^y/a mice (ICV infusion) is “without affecting”. Further, in the data set with A^y/a mice (long-term ICV infusion), the bone formation rate result is on record as “decrease” and the “bone mass / bone volume” value is listed as “significant decrease; also recorded: decreased”.
